# Test results as given in article PMC5705213, “Immunoproteasome functions explained by divergence in cleavage specificity and regulation” (eLife, 2017).
# Legend:
# Format in all cases: biochemical, human
# [1] = substrate: CC(=O)N[C@@H](C)C(=O)N[C@@H](CC(N)=O)C(=O)N[C@@H](Cc1c[nH]c2ccccc12)C(=O)Nc1ccc2c(C)cc(=O)oc2c1; experiment: Purified proteasome activity assay with fluorogenic substrates, SDS-activated i20S; conditions: other: i20S, Michaelis-Menten; pH 8.0
# Experimental: (§1) Non-prime-side substrate specificity profiling was performed with a complete, diverse library of 160,000 fluorogenic substrates containing the general structure acetyl-P4-P3-P2-P1-(7-amino-4-carbamoylmethylcourmarin, ACC) ([Harris et al., 2000]). For each sub-library, 10 nM human i20S or c20S underwent SDS pre-activation for 1 hr at room temperature in assay buffer (20 mM Tris, pH 8.0, 0.5 mM EDTA) containing 0.03% SDS. […] Activity assays were carried out over 1 hr following two-fold sample dilution in the same 0.03% SDS-containing buffer that also contained a 250 μM final concentration of PS-SCL substrate pool. Activity was recorded in black 96-well round bottom plates (Costar, COrning, NY) using a BioTek Synergy H4 Hybrid Multi-Mode Microplate Reader set to λex = 380 nm and λem = 460 nm (gain = 63). Initial velocity in relative fluorescence units per second (RFU/s) was calculated using a linear fit of the progress curves with Gen5 software v.2.03.
# (§2) Activity assays with individual fluorogenic substrates were carried out as described above for the PS-SCL assays using final concentrations of 5 nM SDS-activated i20S or c20S and 10 μM substrate except where noted below. The commercial substrates Suc-LLVY-AMC, Ac-WLA-AMC (Boston Biochem, S-330), and Ac-ANW-AMC (Boston Biochem, S-320) were used as supplied. To convert cleaved substrate RFU to free AMC or ACC dye concentration, calibration curves were prepared through total enzymatic hydrolysis of ACC- or AMC-containing peptides that had been quantified through amino acid analysis (Alphalyse, Inc.). Substrate selectivity of PA28α- and SDS-activated 20S proteasomes was compared following 1 hr pre-incubation at room temperature either in the presence of 0.03% SDS or with 12 molar equivalents of PA28α activator in the absence of SDS. For substrate selectivity assays with mixed, purified proteasomes, i20S and c20S underwent individual SDS pre-activation prior to assaying with 5 nM final concentration of pooled 20S. Proteasome ratio assays were performed with 10 μM EWFW-ACC, 30 μM iso-VQA-ACC, and 30 μM Suc-LLVY-AMC. All activity measurements were recorded on the BioTek plate reader described above using λex = 380 nm and λem = 460 nm (gain = 63) for ACC substrates and Suc-LLVY-AMC; 345 nm and λem = 445 nm (gain = 63) for Ac-WLA-AMC and Ac-ANW-AMC; and λex = 328 nm and λem = 393 nm (gain = 75) for the GEWHWPS IQ substrate. Michaelis-Menten calculations were performed using a non-linear fit in Prism v.6.0.
# [2] = substrate: Cc1cc(=O)oc2cc(NC(=O)[C@H](Cc3ccc(O)cc3)NC(=O)[C@@H](NC(=O)[C@H](CC(C)C)NC(=O)[C@H](CC(C)C)NC(=O)CCC(=O)O)C(C)C)ccc12; experiment: as above; conditions: other: Michaelis-Menten plot, commercial substrate; pH 8.0
# Experimental: as §1, §2
# [3] = substrate: Cc1cc(C(=O)N[C@H](C(=O)N[C@@H](CCC(N)=O)C(=O)N[C@@H](C)C(=O)Nc2ccc3c(CC(N)=O)cc(=O)oc3c2)C(C)C)no1; experiment: as above; conditions: other: i20S, Michaelis-Menten; pH 8.0
# Experimental: as §1, §2
# [4] = substrate: NC(=O)Cc1cc(=O)oc2cc(NC(=O)[C@H](Cc3c[nH]c4ccccc34)NC(=O)[C@H](Cc3c[nH]cn3)NC(=O)[C@H](Cc3c[nH]c4ccccc34)NC(=O)[C@@H](N)CCC(=O)O)ccc12; experiment: as above; conditions: other: i20S, Michaelis-Menten; pH 8.0
# Experimental: as §1, §2
# [5] = substrate: NC(=O)Cc1cc(=O)oc2cc(NC(=O)[C@H](Cc3c[nH]c4ccccc34)NC(=O)[C@H](Cc3ccccc3)NC(=O)[C@H](Cc3c[nH]c4ccccc34)NC(=O)[C@@H](N)CCC(=O)O)ccc12; experiment: as above; conditions: other: i20S, Michaelis-Menten; pH 8.0
# Experimental: as §1, §2
# [6] = substrate: CC(=O)N[C@@H](C)C(=O)N[C@@H](CC(N)=O)C(=O)N[C@@H](Cc1c[nH]c2ccccc12)C(=O)Nc1ccc2c(C)cc(=O)oc2c1; experiment: Purified proteasome activity assay with fluorogenic substrates, SDS-activated c20S; conditions: other: c20S, Michaelis-Menten; pH 8.0
# Experimental: as §1, §2
# [7] = substrate: Cc1cc(=O)oc2cc(NC(=O)[C@H](Cc3ccc(O)cc3)NC(=O)[C@@H](NC(=O)[C@H](CC(C)C)NC(=O)[C@H](CC(C)C)NC(=O)CCC(=O)O)C(C)C)ccc12; experiment: as above; conditions: other: Michaelis-Menten plot, commercial substrate; pH 8.0
# Experimental: as §1, §2
# [8] = substrate: Cc1cc(C(=O)N[C@H](C(=O)N[C@@H](CCC(N)=O)C(=O)N[C@@H](C)C(=O)Nc2ccc3c(CC(N)=O)cc(=O)oc3c2)C(C)C)no1; experiment: as above; conditions: other: c20S, Michaelis-Menten; pH 8.0
# Experimental: as §1, §2
# [9] = substrate: NC(=O)Cc1cc(=O)oc2cc(NC(=O)[C@H](Cc3c[nH]c4ccccc34)NC(=O)[C@H](Cc3c[nH]cn3)NC(=O)[C@H](Cc3c[nH]c4ccccc34)NC(=O)[C@@H](N)CCC(=O)O)ccc12; experiment: as above; conditions: other: c20S, Michaelis-Menten; pH 8.0
# Experimental: as §1, §2
# [10] = substrate: NC(=O)Cc1cc(=O)oc2cc(NC(=O)[C@H](Cc3c[nH]c4ccccc34)NC(=O)[C@H](Cc3ccccc3)NC(=O)[C@H](Cc3c[nH]c4ccccc34)NC(=O)[C@@H](N)CCC(=O)O)ccc12; experiment: as above; conditions: other: c20S, Michaelis-Menten; pH 8.0
# Experimental: as §1, §2
protein,measurement,setting,value
"human immunoproteasome core particle (i20S) (Homo sapiens) (protein, purchased Boston Biochem E-370) chain 1: TTTLAFKFQHGVIAAVDSRASAGSYISALRVNKVIEINPYLLGTMSGCAADCQYWERLLAKECRLYYLRNGERISVSAASKLLSNMMCQYRGMGLSMGSMICGWDKKGPGLYYVDEHGTRLSGNMFSTGSGNTYAYGVMDSGYRPNLSPEEAYDLGRRAIAYATHRDSYSGGVVNMYHMKEDGWVKVESTDVSDLLHQYREANQ chain 2: RFSPYVFNGGTILAIAGEDFAIVASDTRLSEGFSIHTRDSPKCYKLTDKTVIGCSGFHGDCLTLTKIIEARLKMYKHSNNKAMTTGAIAAMLSTILYSRRFFPYYVYNIIGGLDEEGKGAVYSFDPVGSYQRDSFKAGGSASAMLQPLLDNQVGFKNMQNVEHVPLSLDRAMRLVKDVFISAAERDVYTGDALRICIVTKEGIREETVSLRKD",Km,[1],20 µM
same,kcat,[1],1.2 s⁻¹
same,kcat/Km,[1],58000 M⁻¹ s⁻¹
same,Km,[2],98.6 µM
same,Km,[3],43 µM
same,kcat,[3],0.65 s⁻¹
same,kcat/Km,[3],15000 M⁻¹ s⁻¹
same,Km,[4],52 µM
same,kcat,[4],6.8 s⁻¹
same,kcat/Km,[4],130000 M⁻¹ s⁻¹
same,Km,[5],7.0 µM
same,kcat,[5],4.8 s⁻¹
same,kcat/Km,[5],690000 M⁻¹ s⁻¹
"constitutive proteasome core particle (c20S) (Homo sapiens) (protein, purchased Boston Biochem E-360) chain 1: TTTLAFKFRHGVIVAADSRATAGAYIASQTVKKVIEINPYLLGTMAGGAADCSFWERLLARQCRIYELRNKERISVAAASKLLANMVYQYKGMGLSMGTMICGWDKRGPGLYYVDSEGNRISGATFSVGSGSVYAYGVMDRGYSYDLEVEQAYDLARRAIYQATYRDAYSGGAVNLYHVREDGWIRVSSDNVADLHEKYSGSTP chain 2: RFSPYVFNGGTILAIAGEDFAIVASDTRLSEGFSIHTRDSPKCYKLTDKTVIGCSGFHGDCLTLTKIIEARLKMYKHSNNKAMTTGAIAAMLSTILYSRRFFPYYVYNIIGGLDEEGKGAVYSFDPVGSYQRDSFKAGGSASAMLQPLLDNQVGFKNMQNVEHVPLSLDRAMRLVKDVFISAAERDVYTGDALRICIVTKEGIREETVSLRKD",Km,[6],9.8 µM
same,kcat,[6],0.1 s⁻¹
same,kcat/Km,[6],10000 M⁻¹ s⁻¹
same,Km,[7],65.7 µM
same,Km,[8],51 µM
same,kcat,[8],2.3 s⁻¹
same,kcat/Km,[8],45000 M⁻¹ s⁻¹
same,Km,[9],73 µM
same,kcat,[9],1.1 s⁻¹
same,kcat/Km,[9],15000 M⁻¹ s⁻¹
same,Km,[10],1.8 µM
same,kcat,[10],0.31 s⁻¹
same,kcat/Km,[10],170000 M⁻¹ s⁻¹
